Experimental data published in PMC2712087 (PLoS Pathogens, 2009).

Legend:
His-p53 wild-type = target: T1, His-p53 wild-type (human, UniProt P04637 1-393); experiment: pull-down; conditions: both partners purified
T1 construct: also called His-tagged p53; WT p53; source: E. coli, purified (Ni-NTA agarose); not shown: His, N-terminal, kept

[1] = target: T2, FLAG-p53 wild type, from 293T cells (human, UniProt P04637 1-393); experiment: pull-down; conditions: both partners purified
T2 construct: also called FLAG-p53 (WT); p53 protein (WT); source: 293T, transfected, with or without ionizing radiation (20 Gy), purified on anti-FLAG antibody resin

B1: purified recombinant BZLF1 protein (natural protein)
chain: MMDPNSTSEDVKFTPDPYQVPFVQAFDQATRVYQDLGGPSQAPLPCVLWPVLPEPLPQGQLTAYHVSTAPTGSWFSAPQPAPENAYQAYAAPQLFPVSDITQNQQTNQAGGEAPQPGDNSTVQTAAAVVFACPGANQGQQLADIGVPQPAPVAAPARRTRKPQQPESLEECDSELEIKRYKNRVASRKCRAKFKQLLQHYREVAAAKSSENDRLRLLLKQMCPSLDVDSIIPRTPDVLHEDLLNF
notes: also called EBV BZLF1 protein; source: Hi-Five cells infected with recombinant baculovirus AcBZLF1, purified (extracted from nuclei with 0.6 M NaCl; purity more than 90%)
**Q.** Does B1 bind (His-p53 wild-type)?
**A.** binds

**Q.** Does B1 bind [1]?
**A.** binds
